Test results published in PMC8904820.

Molecular target: HRT1-REF bridging protein (HRBP) (Hevea brasiliensis)

Hevea rubber transferase 1 (HRT1) (enzyme)
prenyltransferase activity of HRT1/HRBP-nanodisc complexes, raw [14C]IPP incorporation (12.5 nCi [14C]IPP in the reaction): 12200 dpm
